Measurements as given in US20110182887A1 (AstraZeneca / MedImmune, published 2011).
Like-named read-outs stand apart in the source and are kept apart here.

Assays:
[1] = molecular target: T1, human CD22 (hCD22) expressed on the cell surface (human, UniProt P20273 20-847); assay: cell ELISA on BHK cells expressing human CD22, COS-7 supernatant, OD 655 nm
T1 construct: whole, on cells; One molecule is used for all cell-surface formats; also called human CD22 antigen; BHK-CD22

[2] = molecular target: T1, human CD22 (hCD22) expressed on the …; assay: as above; remark: listed apart in the source
[3] = molecular target: T1, human CD22 (hCD22) expressed on the …; assay: cell ELISA on BHK cells expressing human CD22, OD 655 nm
[4] = molecular target: hCD22 (ligand immobilised on the BIAcore CM5 sensor chip) (human, UniProt P20273 20-687, limits assumed); assay: SPR (BIAcore 3000), hCD22 immobilised on CM5 chip, IgG injected, 1:1 model
Protocol: Binding affinity of HB22.7 and RHOv2ACD/RKA were determined on a BIAcore 3000 instrument (BIAcore, Inc., Uppsala, Sweden). The ligand, hCD22, was prepared at 50 nM in 10 mM NaOAc, pH4 buffer. It was injected onto an EDC/NHS-activated CM5 sensor chip (BIAcore, Inc. Uppsala, Sweden) using a standard immobilization protocol. Following this, any unreacted active ester moieties were quenched using 1M Et-NH2 (ethanolamine; coupling reagents purchased from BIAcore, Inc.). A total of 535 and 689 RUs hCD22 remained bound to two sensor chip surfaces used in these experiments. Separately, a blank surface was prepared on each sensor chip using the identical protocol (minus protein). The blank surfaces were used as a reference cell in the experiments, and served to correct for both non-specific binding and some housekeeping artifacts.
For the kinetic experiments, HB22.7 and RHOv2ACD/RKA were prepared as two dilution series, starting at 22 nM and 100 nM, then diluted three- and two-fold, respectively, down to final concentrations of 0.03 nM and 0.39 nM in HBS-EP buffer (BIAcore, Inc., consisting of the following: 10 mM HEPES buffer, pH7.4, 150 mM NaCl, 3 mM EDTA, and 0.005% P20). Each concentration of IgG was then injected over both the CD22 and reference cell surfaces, which are connected in series. Between injections, surfaces were regenerated with a 1-minute injection of 3M MgCl2.

B1: HB227RHF heavy chain + chimeric HB22.7 light chain (chL) (antibody, human IgG1, V domains shown)
VH: QVQLQESGPALVKPTQTLTLTCTVSGFSLSDYGVNWIRQPPGKALEWLGIIWGDGRTDYNSALKSRLSISKDNSKNQVVLRMTNVDPVDTATYFCARAPGNRAMEYWGQGTVVTVSS
VL: SIVMTQTPKFLLVSAGDRITLTCKASQSVTNDVAWYQQKPGQSPKLLIYYASNRYTGVPDRFTGSGYGTDFTFTISTVQAEDLAVYFCQQDYRSPWTFGGGTKLEI
notes: Human IgG1 kappa, COS-7 supernatant; The VH entry may include the leader; also called HB227RHF+chL; RHF+chL
B1: binds [1].

B2: HB227RHB + HB227RKC humanized antibody (antibody, human IgG1, V domains shown)
VH: QVQLQESGPALVKPTQTLTLTCTFSGFSLSDYGVNWIRQPPGKALEWLAIIWGDGRTDYNSALKSRLSISKDTSKNQVVLRMTNVDPVDTATYFCARAPGNRAMEYWGQGTVVTVSS
VL: DIVMTQSPSSLSASVGDRVTITCKASQSVTNDVAWYQQKPGKAPKLLIYYASNRYTGVPDRFSGSGYGTDFTLTISSLQPEDFATYFCQQDYRSPWTFGGGTKVEIKR
notes: Human IgG1 kappa, COS-7 supernatant; also called RHB+RKC
B2: binds [2].

B3: HB227RHC + HB227RKC humanized antibody (antibody, human IgG1, V domains shown)
VH: QVQLQESGPALVKPTQTLTLTCTFSGFSLSDYGVNWIRQPPGKALEWLGIIWGDGRTDYNSALKSRLSISKDNSKNQVVLRMTNVDPVDTATYFCARAPGNRAMEYWGQGTVVTVSS
VL: DIVMTQSPSSLSASVGDRVTITCKASQSVTNDVAWYQQKPGKAPKLLIYYASNRYTGVPDRFSGSGYGTDFTLTISSLQPEDFATYFCQQDYRSPWTFGGGTKVEIKR
notes: Human IgG1 kappa, COS-7 supernatant; also called RHC+RKC
B3: binds [2].

B4: HB227RHF + HB227RKC humanized antibody (antibody, human IgG1, V domains shown)
VH: QVQLQESGPALVKPTQTLTLTCTVSGFSLSDYGVNWIRQPPGKALEWLGIIWGDGRTDYNSALKSRLSISKDNSKNQVVLRMTNVDPVDTATYFCARAPGNRAMEYWGQGTVVTVSS
VL: DIVMTQSPSSLSASVGDRVTITCKASQSVTNDVAWYQQKPGKAPKLLIYYASNRYTGVPDRFSGSGYGTDFTLTISSLQPEDFATYFCQQDYRSPWTFGGGTKVEIKR
notes: Human IgG1 kappa, COS-7 supernatant; also called RHF+RKC; humanized (RHF+RKC) antibody
For B4, the “EC50 (read off the curve)” value [1] was ~0.2 µg/mL.

B5: chH/RK (antibody, V domains shown)
VH: QVQLKESGPGLVAPSQSLSITCTVSGFSLSDYGVNWVRQIPGKGLEWLGIIWGDGRTDYNSALKSRLNISKDNSKSQVFLKMNSLKADDTARYYCARAPGNRAMEYWGQGTSVTVSS
VL: DIVMTQSPSSLSASVGDRVTITCKASQSVTNDVAWYQQKPGKAPKLLIYYASNRYTGVPDRFSGSGYGTDFTLTISSLQPEDFATYFCQQDYRSPWTFGGGTKVEIKR
notes: also called chH+RKC; chimeric HB22.7 heavy chain (chH) + HB227RKC light chain
B5 was tested, and the “EC50 (read off the curve)” value [2] was ~0.2 µg/mL.

B6: HB227RHO + HB227RKC humanized antibody (antibody, human IgG1, V domains shown)
VH: QVQLEESGGGVVRPGRSLRLSCAASGFTLSDYGVNWIRQAPGKGLEWVGIIWGDGRTDYNSALKSRLTVSRNNSNNTLSLQMNSLTTEDTAVYYCVRAPGNRAMEYWGQGVLVTVS
VL: DIVMTQSPSSLSASVGDRVTITCKASQSVTNDVAWYQQKPGKAPKLLIYYASNRYTGVPDRFSGSGYGTDFTLTISSLQPEDFATYFCQQDYRSPWTFGGGTKVEIKR
notes: Human IgG1 kappa, COS-7 supernatant; also called RHO+RKC
B6: binds [2].

B7: HB227RHOv2ACD + HB227RKC humanized antibody (antibody, human IgG1, V domains shown)
VH: QVQLEESGGGVVRPGRSLRLSCAASGFTFSDYGVNWIRQAPGKGLEWVTIIWGDGRTDYNSALKSRFTVSRNNSNNTLSLQMNSLTTEDTAVYYCVRAPGNRAMEYWGQGVLVTVS
VL: DIVMTQSPSSLSASVGDRVTITCKASQSVTNDVAWYQQKPGKAPKLLIYYASNRYTGVPDRFSGSGYGTDFTLTISSLQPEDFATYFCQQDYRSPWTFGGGTKVEIKR
notes: Human IgG1 kappa, COS-7 supernatant; also called RHOv2ACD+RKC
B7: binds [3].

B8: humanized anti-hCD22 antibody RHOv2ACD/RKA (HB227RHOv2ACD VH + HB227RKA VK) (antibody, human IgG1, V domains shown)
VH: QVQLEESGGGVVRPGRSLRLSCAASGFTFSDYGVNWIRQAPGKGLEWVTIIWGDGRTDYNSALKSRFTVSRNNSNNTLSLQMNSLTTEDTAVYYCVRAPGNRAMEYWGQGVLVTVS
VL: DIVMTQSPSSLSASVGDRVTITCKASQSVTNDVAWYQQKPGKAPKLLIYYASNRYTGVPSRFSGSGSGTDFTLTISSLQPEDFATYYCQQDYRSPWTFGGGTKVEIKR
notes: Human IgG1 kappa expression vectors; It was labelled with Alexa-fluor in some cell assays; also called RHOvACD/RKA; RHOACD/RKA
B8 was tested, and the Kd [4] was 22 nM, the koff [4] was 0.00069 s⁻¹ and the kon [4] was 32000 M⁻¹ s⁻¹.
